Assays:
recombinant XT-I = molecular target: T1, recombinant XT-I (Homo sapiens, UniProt Q86Y38); assay: XT activity assay of recombinant XT-I expressed in CHO-K1 cells with different acceptors and with heparin; format: biochemical; settings: for XT Activitiy pCG227-XT: recombinant XT-I from CHO-K1 cells, immunoprecipitated on beads, named acceptor, without heparin, n.d. = not detected (detection limit 20 μU/l)
T1 construct: polyhistidine leader of vector pcDNA4/HisMax-TOPO (own knowledge of the vector); made in house; host or cells: CHO-K1, transient transfection with pCG227-XT-I
T1 sequence (Q86Y38 148-959): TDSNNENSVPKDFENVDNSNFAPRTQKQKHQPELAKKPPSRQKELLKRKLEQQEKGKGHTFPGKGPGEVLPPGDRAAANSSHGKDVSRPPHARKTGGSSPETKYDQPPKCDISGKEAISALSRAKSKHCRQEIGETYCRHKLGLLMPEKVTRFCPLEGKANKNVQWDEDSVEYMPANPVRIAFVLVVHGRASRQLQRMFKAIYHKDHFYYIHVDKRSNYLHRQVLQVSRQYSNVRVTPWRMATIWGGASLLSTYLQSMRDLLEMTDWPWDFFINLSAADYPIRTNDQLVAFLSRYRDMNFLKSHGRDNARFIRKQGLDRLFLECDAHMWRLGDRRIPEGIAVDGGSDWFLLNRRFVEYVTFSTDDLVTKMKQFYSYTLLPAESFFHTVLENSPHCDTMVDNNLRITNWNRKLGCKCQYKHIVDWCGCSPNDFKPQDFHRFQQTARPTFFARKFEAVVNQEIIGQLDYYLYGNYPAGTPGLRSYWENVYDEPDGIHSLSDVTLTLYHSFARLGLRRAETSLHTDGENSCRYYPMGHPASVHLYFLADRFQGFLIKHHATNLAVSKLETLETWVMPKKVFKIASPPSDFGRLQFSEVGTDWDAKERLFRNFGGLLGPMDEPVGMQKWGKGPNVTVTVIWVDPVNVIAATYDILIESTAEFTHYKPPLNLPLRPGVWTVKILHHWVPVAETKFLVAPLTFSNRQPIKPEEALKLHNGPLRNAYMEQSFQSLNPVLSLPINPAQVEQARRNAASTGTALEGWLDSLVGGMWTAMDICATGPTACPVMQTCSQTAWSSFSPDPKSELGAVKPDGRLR
Source text: The degenerate primers PFF-sense and Lysc-inv1 which were designed upon the amino acid sequence of proteolytic cleaved peptides of human XT-I were used in a PCR reaction with first strand cDNA of placenta poly(A)^+ mRNA as template. […] To clone the complete coding sequence of the novel cDNA, the RACE strategy was employed. The cDNA finally obtained was 3608 bp (FIG. 8A) and contained a single open reading frame encoding a protein of 865 amino acids with a molecular mass of 97.000. The 3′-untranslated region is 850 bp and a 5′-untranslated region of 149 bp was identified with an in-frame stop codon upstream of the ATG codon. […] No detectable XT activity was recovered by the affinity purification from a control transfection sample. The substrate specificity of the recombinant XT-I was similar to that of the XT-I isolated from human body fluids and cell culture supernatants.
Determination of XT activity. Determination of XT activity is based on the incorporation of [14C]-D-xylose into the recombinant bikunin according to a previously described method (Brinkmann et al., 1997, J. Biol. Chem., 272, 11171-11175). For analysis of the substrate specificity of the recombinant xylosyltransferases synthetic peptides containing the XT recognition sequence were used as acceptor. The reaction mixture for the assay contained, in a total volume of 100 μl: 50 μl of XT solution, 25 mM 4-morpholineethanesulfonic acid (pH 6.5), 25 mM KCl, 5 mM KF, 5 MM MgCl2, 5 mM MnCl2, 1.0 μM UDP-[^14C]-D-xylose, and 1.5 μM of the synthetic peptides. After incubation for 75 min at 37° C., the reaction mixtures were placed on discs (25 mm diameter) of Immobilon-AV membrane, which immobilizes even small peptides by covalent links (Pfund & Bourdage, 1990, Mol. Immunol. 27, 495-502), and allowed to dry. It was then washed for 10 min with 10% trichloroacetic acid and three times with 5% trichloroacetic acid solution. Incorporated radioactivity was determined by liquid scintillation counting.
Transfection and transient expression of XT. For construction of a eukaryotic expression vector a DNA fragment including the known coding sequence of XT-I cDNA was amplified by PCR using XT_Exp1L 5′-[…]-3′ and XT_Exp3U 5′-[…]-3′ as primers and placenta first-strand cDNA (Clontech) as template. The 2450 bp fragment obtained was cloned into the vector pcDNA4/HisMax-TOPO (Invitrogen) resulting in the fusion of XT-I to the Xpress epitope. The plasmid pCG227-XT-I was then transiently transfected into CHO-K1 cells. The coding region of the XT-II cDNA was amplified by PCR using the primers AB_Exp9U 5′-AAAGGAAGGCAGAGGAAGC-3′ and AB_Exp3L 5′-ACCCCTCCACTGT-CTGTAAG-3′ and placenta first-strand cDNA as template. The obtained 2440 bp DNA fragment was cloned into the expression vector pcDNA4/HisMax-TOPO resulting in the fusion of XT-II to the aminoterminal Xpress epitope. The plasmid termed pCG226-XT-II was transiently transfected into CHO-K1 cells. 2×10^5 cells precultured for 1 day in a 35 mm diameter cell culture dish were transfected with 2 μg of plasmid DNA and 6 μl of Fugene 6 transfection reagent (Roche, Mannheim, Germany). For determination of transfection efficiency CHO-K1 cells were transfected with 2 μg of the control plasmid pcDNA4/HisMax-TOPO-lacZ. 48 h after transfection the cell culture medium was harvested. Protein G agarose beads (Sigma, Deisenhofen, Germany) and mouse anti-Xpress monoclonal antibody (Invitrogen) were added to the cell culture supernatant and incubated at 4° C. for 1 h. […]

XT [1] = assay: Effect of protamine chloride added to the XT assay solution; format: biochemical, human
Source text: UDP-D-xylose: proteoglycan core protein β-D-xylosyltransferase can be isolated and purified from JAR choriocarcinoma cell culture. The isolated protein according to the invention is a single stranded polypeptide with a molecular weight of 120.000. The protein was enzymatically cleaved and eleven peptide fragments were sequenced by Edman degradation (see Examples). XT is present only in very small amounts in animal tissues but unlike other glycosyltransferases, more than 90% of XT is enriched in the medium of cultured cells. The highest secretion of XT activity was measured in JAR choriocarcinoma cell culture, in which sternal cartilage chondrocytes and 21 different human cell lines were examined. To produce a highly enriched XT solution for the isolation of XT, JAR choriocarcinoma cells were adapted to hollow fiber culture conditions using a novel bioreactor (TECNOMOUSE) and Ultradoma-PF medium without serum addition as nutrient. For purification of XT a combination of classic separation methods and new affinity matrices was employed. Therefore, a heparin matrix was used as an affinity ligand for the XT. […]
Determination of XT activity. […] Incorporated radioactivity was determined by liquid scintillation counting.

XT [2] = settings: cited from earlier work
[3] = Storage stability of purified XT enzyme activity; format: physicochemical; settings: purified XT after protamine affinity chromatography, stored at −75° C.
Experimental: Step 4: Affinity chromatography on protamine chloride The product of step 3 was desalted and concentrated using dia- and ultrafiltration. […] Additional proteins were eluted with buffer A containing low NaCl concentrations. Enzyme activity was eluted at approximately 0.15 M NaCl (FIG. 1C). The enzyme activity was stable for at least 6 months at −75° C.
Step 4: Affinity chromatography on protanine chloride—XT-containing solution from step 3 was desalted as described above and concentrated to 5 ml by ultrafiltration with YM1 cellulose membranes. The ultrafiltration product was passed through a 0.2 μm filter. 100 μl of the filtrate was loaded onto a protamine chloride—POROS column (4.6×50 mm) equilibrated with buffer A. The flow rate was 10 ml/min. The column was washed with 10.0 ml of buffer A, and the adsorbed fraction was eluted with the same buffer containing NaCl by a stepwise increase of the NaCl concentration: 6.6 ml buffer A/0.04 M NaCl; 6.6 ml buffer A/0,06 M NaCl; 6.6 ml buffer A/0.23 M NaCl followed by a linear gradient of 0.23-1.20 M NaCl (4.2 ml) in buffer A. Fractions of 6.0 ml were collected, assayed for XT activity and evaluated by SDS-PAGE. Cyclic chromatography was repeated 50 times. The purified enzyme was collected, concentrated to 1.0 ml using ultrafiltration techniques and stored at −75° C.

## SENEGSGMAEQK [L-APLP2 peptide SENEGSGMAEQK, synthetic L-APLP2 homologous peptide used as XT acceptor]
Recombinant XT-I
  XT Activitiy pCG227-XT: 515 μU/l

## QEEGSGGGGQK [Bikunin peptide QEEGSGGGGQK, synthetic bikunin homologous peptide used as XT acceptor]
Recombinant XT-I
  XT Activitiy pCG227-XT: 463 μU/l

## heparin
Recombinant XT-I; addition of 250 U of heparin
  inhibition of enzyme activity of recombinantly expressed XT-I: completely inhibited

## protamine chloride
XT [1]
  effect on XT activity: increased XT activity

## TENEGSGLTNIK [L-APP peptide TENEGSGLTNIK, synthetic L-APP homologous peptide used as XT acceptor]
Recombinant XT-I
  XT Activitiy pCG227-XT: 492 μU/l

B1: Recombinant bikunin: recombinant bikunin, the inhibitory component of human inter-α-trypsin inhibitor; XT acceptor protein (protein, UniProt P02760 206-352, looked up)
Inter-alpha-trypsin inhibitor …: AVLPQEEEGSGGGQLVTEVTKKEDSCQLGYSAGPCMGMTSRYFYNGTSMACETFQYGGCMGNGNNFVTEKECLQTCRTVAACNLPIVRGPCRAFIQLWAFDAVKGKCVLFPYGGCQGNGNKFYSEKECREYCGVPGDGDEELLRFSN
modifications: Inter-alpha-trypsin inhibitor light chain recombinant
notes: XT acceptor protein
Recombinant XT-I
  XT Activitiy pCG227-XT: 2854 μU/l
XT [2]; enriched XT preparation from conditioned cell culture supernatant of human chondrocytes, read-out: Michaelis-Menten (Km) constant for in vitro xylosylation
  Km: 22 µM
XT [2]; enriched XT preparation from human chondrocytes
  decrease of Km in comparison to deglycosylated core protein from bovine cartilage: 9 fold

B2: UDP-D-xylose:proteoglycan core protein β-D-xylosyltransferase (protein, UniProt Q86Y38 1-959, looked up)
Xylosyltransferase 1: MVAAPCARRLARRSHSALLAALTVLLLQTLVVWNFSSLDSGAGERRGGAAVGGGEQPPPAPAPRRERRDLPAEPAAARGGGGGGGGGGGGRGPQARARGGGPGEPRGQQPASRGALPARALDPHPSPLITLETQDGYFSHRPKEKVRTDSNNENSVPKDFENVDNSNFAPRTQKQKHQPELAKKPPSRQKELLKRKLEQQEKGKGHTFPGKGPGEVLPPGDRAAANSSHGKDVSRPPHARKTGGSSPETKYDQPPKCDISGKEAISALSRAKSKHCRQEIGETYCRHKLGLLMPEKVTRFCPLEGKANKNVQWDEDSVEYMPANPVRIAFVLVVHGRASRQLQRMFKAIYHKDHFYYIHVDKRSNYLHRQVLQVSRQYSNVRVTPWRMATIWGGASLLSTYLQSMRDLLEMTDWPWDFFINLSAADYPIRTNDQLVAFLSRYRDMNFLKSHGRDNARFIRKQGLDRLFLECDAHMWRLGDRRIPEGIAVDGGSDWFLLNRRFVEYVTFSTDDLVTKMKQFYSYTLLPAESFFHTVLENSPHCDTMVDNNLRITNWNRKLGCKCQYKHIVDWCGCSPNDFKPQDFHRFQQTARPTFFARKFEAVVNQEIIGQLDYYLYGNYPAGTPGLRSYWENVYDEPDGIHSLSDVTLTLYHSFARLGLRRAETSLHTDGENSCRYYPMGHPASVHLYFLADRFQGFLIKHHATNLAVSKLETLETWVMPKKVFKIASPPSDFGRLQFSEVGTDWDAKERLFRNFGGLLGPMDEPVGMQKWGKGPNVTVTVIWVDPVNVIAATYDILIESTAEFTHYKPPLNLPLRPGVWTVKILHHWVPVAETKFLVAPLTFSNRQPIKPEEALKLHNGPLRNAYMEQSFQSLNPVLSLPINPAQVEQARRNAASTGTALEGWLDSLVGGMWTAMDICATGPTACPVMQTCSQTAWSSFSPDPKSELGAVKPDGRLR
notes: enzyme (EC 2.4.2.26) purified from JAR choriocarcinoma cell culture supernatant, MW 120.000
[3]
  time for which enzyme activity was stable: at least 6 months

— patent publication US20050070001A1, “Xylosyltransferase and isoforms thereof” (priority 1999, published 2005)
